# Changes are numbered by the printed parent chain. Where two headings read alike, the source gives them in different places.
# T1: EbfC K23A (Borrelia burgdorferi, UniProt O51418 1-99, K23A)
# T1 sequence: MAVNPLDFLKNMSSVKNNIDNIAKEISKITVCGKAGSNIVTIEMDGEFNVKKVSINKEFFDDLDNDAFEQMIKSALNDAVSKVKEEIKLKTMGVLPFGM
# T2: EbfC K82A (Borrelia burgdorferi, UniProt O51418 1-99, K82A)
# T2 sequence: T1 sequence with A23K, K82A
# T3: EbfC D20A (Borrelia burgdorferi, UniProt O51418 1-99, D20A)
# T3 sequence: T1 sequence with D20A, A23K
# T4: EbfC N77A (Borrelia burgdorferi, UniProt O51418 1-99, N77A)
# T4 sequence: T1 sequence with A23K, N77A
# T5: EbfC K16A (Borrelia burgdorferi, UniProt O51418 1-99, K16A)
# T5 sequence: T1 sequence with K16A, A23K
# T6: EbfC K88A (Borrelia burgdorferi, UniProt O51418 1-99, K88A)
# T6 sequence: T1 sequence with A23K, K88A
# T7: EbfC D78A (Borrelia burgdorferi, UniProt O51418 1-99, D78A)
# T7 sequence: T1 sequence with A23K, D78A
# T8: EbfC K84A (Borrelia burgdorferi, UniProt O51418 1-99, K84A)
# T8 sequence: T1 sequence with A23K, K84A
# T9: EbfC E85A (Borrelia burgdorferi, UniProt O51418 1-99, E85A)
# T9 sequence: T1 sequence with A23K, E85A
# T10: EbfC (Borrelia burgdorferi, UniProt O51418 1-99)
# T10 sequence: T1 sequence with A23K
# B1: b-WT (dsDNA)
# DNA 1: TTGTAATGAGTAGTGCATTTGCAATGGAGAGATTTTGGGGAGTTGTTTAAAATTACATTTGCGTTTTGTTAAAATGTAACAGCTGAATGTAACAAAATTATATATTTAAATCTTTGAAATATTGC
# DNA 2: GCAATATTTCAAAGATTTAAATATATAATTTTGTTACATTCAGCTGTTACATTTTAACAAAACGCAAATGTAATTTTAAACAACTCCCCAAAATCTCTCCATTGCAAATGCACTACTCATTACAA
# Columns and labels:
# Assay in all cases: EMSA
# EbfC K23A = target: T1, EbfC K23A
# EbfC K82A = target: T2, EbfC K82A
# EbfC D20A = target: T3, EbfC D20A
# EbfC N77A = target: T4, EbfC N77A
# EbfC K16A = target: T5, EbfC K16A
# EbfC K88A = target: T6, EbfC K88A
# EbfC D78A = target: T7, EbfC D78A
# EbfC K84A = target: T8, EbfC K84A
# EbfC E85A = target: T9, EbfC E85A
# EbfC [1] = target: T10, EbfC
# EbfC [2] = target: T10, EbfC; remark: listed apart in the source
binder,measurement,setting,value
B1,binding result,EbfC K23A,no binding
same,binding result,EbfC K82A,no binding
same,binding result,EbfC D20A,no binding
same,binding result,EbfC N77A,no binding
same,binding result,EbfC K16A,no binding
same,binding result,EbfC K88A,no binding
same,binding result,EbfC D78A,no binding
same,binding result,EbfC K84A,no binding
same,binding result,EbfC E85A,no binding
same,Kd,EbfC [1],388 ± 108 nM
same,Kd,EbfC [2],313 nM
